# In paper PMC9610207 (Viruses, 2022):
# No end group written: not given here.
# Target: SNX27 PDZ (amino acids 740–141) (human, UniProt Q96L92 43-136)
# Experiment: fluorescence polarisation
# Conditions: both partners purified
binder,measurement,value
SADAQSFLNGFAV (also: FITC-labeled) [FITC-labeled peptide NSP11 4393-4405 of SARS-CoV-2],Kd,> 400 µM
